Data published in paper PMC2896254 (Biopolymers, 2009).
Like-named read-outs stand apart in the source and are kept apart here. The star is where a group is joined. MBP = 4-(maleimido)benzophenone, alkylating the Cys, O=C(c1ccccc1)c1ccc(N2C(=O)CC(*)C2=O)cc1; Biotin = O=C1N[C@H]2[C@H](CS[C@H]2CCCCC(=O)*)N1

Columns and labels:
Test in all cases: pull-down
[1] = molecular target: T1, Wild-type full-length Ffh carrying an N-terminal deca-His tag (E. coli, UniProt P0AGD7 1-453)
T1 sequence (looked up): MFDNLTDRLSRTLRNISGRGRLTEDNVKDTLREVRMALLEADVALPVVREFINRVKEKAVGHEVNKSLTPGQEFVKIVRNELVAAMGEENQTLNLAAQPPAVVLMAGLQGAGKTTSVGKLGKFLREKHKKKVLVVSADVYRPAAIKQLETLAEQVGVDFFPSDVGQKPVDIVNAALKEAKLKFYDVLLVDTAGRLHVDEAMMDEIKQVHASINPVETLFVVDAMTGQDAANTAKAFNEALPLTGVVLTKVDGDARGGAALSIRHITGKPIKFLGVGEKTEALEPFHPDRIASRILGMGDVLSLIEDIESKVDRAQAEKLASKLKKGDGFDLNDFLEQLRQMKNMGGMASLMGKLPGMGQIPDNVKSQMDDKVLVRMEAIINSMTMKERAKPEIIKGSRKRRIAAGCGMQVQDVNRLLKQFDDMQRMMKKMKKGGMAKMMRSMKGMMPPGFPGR

[2] = molecular target: T1, Wild-type full-length Ffh carrying an …; remark: listed apart in the source
[3] = molecular target: T2, His-tagged NG domain of Ffh (residues M1 to V300) (E. coli, UniProt P0AGD7 1-300)
T2 sequence (looked up): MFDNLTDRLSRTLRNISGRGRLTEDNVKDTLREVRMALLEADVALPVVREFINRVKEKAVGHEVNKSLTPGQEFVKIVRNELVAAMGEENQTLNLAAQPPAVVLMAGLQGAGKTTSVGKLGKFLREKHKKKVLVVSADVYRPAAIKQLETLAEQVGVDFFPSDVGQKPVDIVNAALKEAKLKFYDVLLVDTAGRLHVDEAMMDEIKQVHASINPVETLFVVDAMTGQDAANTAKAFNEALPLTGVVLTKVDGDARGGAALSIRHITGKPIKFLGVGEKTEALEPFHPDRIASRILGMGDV

[4] = molecular target: T3, His-tagged M domain of Ffh (M297 to R453) (E. coli, UniProt P0AGD7 297-453)
T3 sequence (looked up): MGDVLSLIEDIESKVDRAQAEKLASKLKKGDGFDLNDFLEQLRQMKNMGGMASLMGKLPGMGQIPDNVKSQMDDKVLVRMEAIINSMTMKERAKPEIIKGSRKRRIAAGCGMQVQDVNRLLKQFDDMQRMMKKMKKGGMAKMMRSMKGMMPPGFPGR

B1: BioPhoAC10 (peptide)
peptide: Biotin-MKQKKKLALCLLLLLLTPVTKA-NH2
SMILES: CSCC[C@H](NC(=O)CCCC[C@@H]1SC[C@@H]2NC(=O)N[C@@H]21)C(=O)N[C@@H](CCCCN)C(=O)N[C@@H](CCC(N)=O)C(=O)N[C@@H](CCCCN)C(=O)N[C@@H](CCCCN)C(=O)N[C@@H](CCCCN)C(=O)N[C@@H](CC(C)C)C(=O)N[C@@H](C)C(=O)N[C@@H](CC(C)C)C(=O)N[C@@H](CS)C(=O)N[C@@H](CC(C)C)C(=O)N[C@@H](CC(C)C)C(=O)N[C@@H](CC(C)C)C(=O)N[C@@H](CC(C)C)C(=O)N[C@@H](CC(C)C)C(=O)N[C@@H](CC(C)C)C(=O)N[C@H](C(=O)N1CCC[C@H]1C(=O)N[C@H](C(=O)N[C@H](C(=O)N[C@@H](CCCCN)C(=O)N[C@@H](C)C(N)=O)[C@@H](C)O)C(C)C)[C@@H](C)O
- binding result [1]: binds

B2: BioPhoAC13 (peptide)
peptide: Biotin-MKQKKKLALLLLCLLLTPVTKA-NH2
SMILES: CSCC[C@H](NC(=O)CCCC[C@@H]1SC[C@@H]2NC(=O)N[C@@H]21)C(=O)N[C@@H](CCCCN)C(=O)N[C@@H](CCC(N)=O)C(=O)N[C@@H](CCCCN)C(=O)N[C@@H](CCCCN)C(=O)N[C@@H](CCCCN)C(=O)N[C@@H](CC(C)C)C(=O)N[C@@H](C)C(=O)N[C@@H](CC(C)C)C(=O)N[C@@H](CC(C)C)C(=O)N[C@@H](CC(C)C)C(=O)N[C@@H](CC(C)C)C(=O)N[C@@H](CS)C(=O)N[C@@H](CC(C)C)C(=O)N[C@@H](CC(C)C)C(=O)N[C@@H](CC(C)C)C(=O)N[C@H](C(=O)N1CCC[C@H]1C(=O)N[C@H](C(=O)N[C@H](C(=O)N[C@@H](CCCCN)C(=O)N[C@@H](C)C(N)=O)[C@@H](C)O)C(C)C)[C@@H](C)O
- binding result [2]: binds

B3: BioPhoAC11 (peptide)
peptide: Biotin-MKQKKKLALLCLLLLLTPVTKA-NH2
SMILES: CSCC[C@H](NC(=O)CCCC[C@@H]1SC[C@@H]2NC(=O)N[C@@H]21)C(=O)N[C@@H](CCCCN)C(=O)N[C@@H](CCC(N)=O)C(=O)N[C@@H](CCCCN)C(=O)N[C@@H](CCCCN)C(=O)N[C@@H](CCCCN)C(=O)N[C@@H](CC(C)C)C(=O)N[C@@H](C)C(=O)N[C@@H](CC(C)C)C(=O)N[C@@H](CC(C)C)C(=O)N[C@@H](CS)C(=O)N[C@@H](CC(C)C)C(=O)N[C@@H](CC(C)C)C(=O)N[C@@H](CC(C)C)C(=O)N[C@@H](CC(C)C)C(=O)N[C@@H](CC(C)C)C(=O)N[C@H](C(=O)N1CCC[C@H]1C(=O)N[C@H](C(=O)N[C@H](C(=O)N[C@@H](CCCCN)C(=O)N[C@@H](C)C(N)=O)[C@@H](C)O)C(C)C)[C@@H](C)O
- binding result [1]: binds
- binding result [3]: binds
- binding result [4]: binds

B4: BioPhoAC14 (peptide)
peptide: Biotin-MKQKKKLALLLLLCLLTPVTKA-NH2
SMILES: CSCC[C@H](NC(=O)CCCC[C@@H]1SC[C@@H]2NC(=O)N[C@@H]21)C(=O)N[C@@H](CCCCN)C(=O)N[C@@H](CCC(N)=O)C(=O)N[C@@H](CCCCN)C(=O)N[C@@H](CCCCN)C(=O)N[C@@H](CCCCN)C(=O)N[C@@H](CC(C)C)C(=O)N[C@@H](C)C(=O)N[C@@H](CC(C)C)C(=O)N[C@@H](CC(C)C)C(=O)N[C@@H](CC(C)C)C(=O)N[C@@H](CC(C)C)C(=O)N[C@@H](CC(C)C)C(=O)N[C@@H](CS)C(=O)N[C@@H](CC(C)C)C(=O)N[C@@H](CC(C)C)C(=O)N[C@H](C(=O)N1CCC[C@H]1C(=O)N[C@H](C(=O)N[C@H](C(=O)N[C@@H](CCCCN)C(=O)N[C@@H](C)C(N)=O)[C@@H](C)O)C(C)C)[C@@H](C)O
- binding result [2]: binds

B5: BioPhoAC11-BP (peptide)
peptide: Biotin-MKQKKKLALLC(MBP)LLLLLTPVTKA-NH2
SMILES: CSCC[C@H](NC(=O)CCCC[C@@H]1SC[C@@H]2NC(=O)N[C@@H]21)C(=O)N[C@@H](CCCCN)C(=O)N[C@@H](CCC(N)=O)C(=O)N[C@@H](CCCCN)C(=O)N[C@@H](CCCCN)C(=O)N[C@@H](CCCCN)C(=O)N[C@@H](CC(C)C)C(=O)N[C@@H](C)C(=O)N[C@@H](CC(C)C)C(=O)N[C@@H](CC(C)C)C(=O)N[C@@H](CSC1CC(=O)N(c2ccc(C(=O)c3ccccc3)cc2)C1=O)C(=O)N[C@@H](CC(C)C)C(=O)N[C@@H](CC(C)C)C(=O)N[C@@H](CC(C)C)C(=O)N[C@@H](CC(C)C)C(=O)N[C@@H](CC(C)C)C(=O)N[C@H](C(=O)N1CCC[C@H]1C(=O)N[C@H](C(=O)N[C@H](C(=O)N[C@@H](CCCCN)C(=O)N[C@@H](C)C(N)=O)[C@@H](C)O)C(C)C)[C@@H](C)O
- binding result [1]: binds

B6: BioPhoAC12 (peptide)
peptide: Biotin-MKQKKKLALLLCLLLLTPVTKA-NH2
SMILES: CSCC[C@H](NC(=O)CCCC[C@@H]1SC[C@@H]2NC(=O)N[C@@H]21)C(=O)N[C@@H](CCCCN)C(=O)N[C@@H](CCC(N)=O)C(=O)N[C@@H](CCCCN)C(=O)N[C@@H](CCCCN)C(=O)N[C@@H](CCCCN)C(=O)N[C@@H](CC(C)C)C(=O)N[C@@H](C)C(=O)N[C@@H](CC(C)C)C(=O)N[C@@H](CC(C)C)C(=O)N[C@@H](CC(C)C)C(=O)N[C@@H](CS)C(=O)N[C@@H](CC(C)C)C(=O)N[C@@H](CC(C)C)C(=O)N[C@@H](CC(C)C)C(=O)N[C@@H](CC(C)C)C(=O)N[C@H](C(=O)N1CCC[C@H]1C(=O)N[C@H](C(=O)N[C@H](C(=O)N[C@@H](CCCCN)C(=O)N[C@@H](C)C(N)=O)[C@@H](C)O)C(C)C)[C@@H](C)O
- binding result [2]: binds
